The target in one data set is SSTR2 (Homo sapiens, UniProt P30874). Description: SSTR binding affinity by radioligand binding competition assay ([125I]-Tyr11-Somatostatin, membrane extracts). To be noted: radioligand competition, [125I]-Tyr11-Somatostatin 0.1 nM, membrane extracts, Ki from IC50 by Cheng Prusoff. (In a radioligand displacement assay an active substance lowers the binding of a labelled ligand.)

The nature of data set [1]: Peptide conjugate biodistribution measured by tissue PK (ICP-MS, % ID/g in kidney tissue at 2 h). The data set is classed as in vivo. To be noted: 2 h time point, mouse. Here is the method:
Macrocyclic peptides and conjugates described herein were tested for tissue distribution by measuring concentrations in tissues by MS using in vivo animal models. Peptide metal chelates were dosed to animals and tissues were collected at specific time points based off the peptide PK profile. The samples were then analyzed by MS and the results reported as % ID/g (% injected dose/gram). Radiopharmaceutical conjugates of the present disclosure have improved tissue distribution for radiopharmaceutical therapeutics.
Peptide metal chelate doses were suspended in phosphate-buffered saline (PBS) containing 0.1% Tween 80. An injection volume of 100 μL per mouse was used, and blood and tissue samples were collected, weighed, and stored frozen at-80° C. until analysis. Tissue samples were digested with concentrated nitric acid in a microwave digestion apparatus. The sample digest was diluted with internal standard and analyzed using inductively coupled plasma mass spectrometry (ICP-MS). ICP-MS is an elemental analysis technique used to measure elements by using argon plasma to convert the sample into ions that are then measured using the mass spectrometer. Calibration standards were used for quantification of element(s) of interest by constructing a multipoint standard curve covering the range of analyte concentrations anticipated in the samples (typical range is 500 ppt to 0.1 ppt). A single quadrupole instrument (iCAP RQ, Thermo Fisher) ICP-MS was coupled with a Teledyne CETAC autosampler and used for the sample analysis.
The % ID/g of conjugate in kidney tissue at the 2-hour time point (2 h) was quantified for various conjugates, and the results are shown in Table 10. Lower kidney tissue % ID/g values indicate lower distribution to the kidney after administration of the conjugate.

Data set [2] deals with T1, somatostatin receptor type 2 (SSTR2) (UniProt P30874 1-369, limits assumed).
T1 construct: also called SSTR protein
Description: radioligand competition; Ki bin per legend.

Like-named read-outs stand apart in the source and are kept apart here. Numbered stars: 1 amine (or outer) side, 2 acyl side, 3 side chain; on linkers, the order of the positions; unused ones are H or OH. Square brackets hold non-standard residues; d marks the D form. Peptide text beside a SMILES is read from it. * marks the point of attachment. DOTA(Lu)NH(CH2)6NHCOCH2 = O=C(CN1CCN2CCN3CCN(CC1)CC(=O)[O][Lu]([O]C(=O)C2)[O]C(=O)C3)NCCCCCCNC(=O)C*; DOTA(Lu) = O=C1CN2CCN3CCN(CC(=O)*)CCN(CC2)CC(=O)[O][Lu]([O]1)[O]C(=O)C3; Ala(piperidin-4-yl) = O=C([C@H](CC1CCN([*:3])CC1)N[*:1])[*:2]; dTrp(βS-Me) = C[C@@H](c1c[nH]c2ccccc12)[C@@H](N)C(=O)O; Ala(piperazin-1-yl) = N[C@@H](CN1CCNCC1)C(=O)O; X2 = O=C([C@H](CCC1CNC1)N[*:1])[*:2]; Lys(Me2) = CN(C)CCCC[C@H](N)C(=O)O; Lys(Me) = CNCCCC[C@H](N)C(=O)O; NMehCys = CN[C@@H](CCS)C(=O)O; NMeK = CN[C@@H](CCCCN)C(=O)O; X1 = C1NCC1*

SSTR2, sequence (P30874 whole entry): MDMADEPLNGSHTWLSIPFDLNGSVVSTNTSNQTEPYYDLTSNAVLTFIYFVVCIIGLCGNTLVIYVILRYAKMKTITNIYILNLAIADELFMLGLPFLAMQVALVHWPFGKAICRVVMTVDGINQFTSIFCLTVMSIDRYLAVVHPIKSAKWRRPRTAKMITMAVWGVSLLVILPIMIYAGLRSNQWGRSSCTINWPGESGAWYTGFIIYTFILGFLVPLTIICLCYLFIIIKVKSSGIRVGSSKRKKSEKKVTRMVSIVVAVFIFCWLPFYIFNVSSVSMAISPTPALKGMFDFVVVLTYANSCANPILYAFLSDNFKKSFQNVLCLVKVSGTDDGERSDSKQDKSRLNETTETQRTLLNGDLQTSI
T1 sequence (P30874 whole entry): as above

The term Ki denotes a dissociation constant, usually derived from enzyme kinetics or from competition with a known ligand. For orientation: tissue uptake means the percentage of the injected dose found per gram of tissue. Low readings indicate low uptake, high ones high uptake. Turning to `C[C@@H](O)[C@@H]1NC(=O)[C@H](CCCCN)NC(=O)[C@@H](Cc2c[nH]c3ccccc23)NC(=O)[C@H](Cc2ccc(O)cc2)NC(=O)[C@H](CCSCC(=O)NCCCCCCNC(=O)CN2CCN3CCN4CCN(CC2)CC(=O)[O][Lu]([O]C(=O)C3)[O]C(=O)C4)N(C)C(=O)[C@H](Cc2ccccc2)NC1=O` [RB-0003149], the Ki on SSTR2 (SSTR2 Ki) is below 1 nM. Further, the tissue uptake at 2 h in data set [1] is 8.4 %ID/g. With `C[C@@H](O)[C@@H]1NC(=O)[C@H](CCCCN)NC(=O)[C@H](Cc2c[nH]c3ccccc23)NC(=O)[C@H](Cc2ccc(O)cc2)NC(=O)[C@H](CCSCC(=O)NCCOCCOCCOCCNC(=O)CN2CCN3CCN4CCN(CC2)CC(=O)[O][Lu]([O]C(=O)C3)[O]C(=O)C4)N(C)C(=O)[C@H](Cc2ccccc2)NC1=O` [RB-0005502], the Ki at SSTR2 (read-out: SSTR2 Ki) is below 1 nM. For the same molecule, in data set [1], the tissue uptake at 2 h amounted to 9.4 %ID/g. Take `C[C@@H](O)[C@@H]1NC(=O)[C@H](CC2CCNCC2)NC(=O)[C@@H]([C@@H](C)c2c[nH]c3ccccc23)NC(=O)[C@H](Cc2ccc(O)cc2)NC(=O)[C@H](CCSCC(=O)NCCCCCCNC(=O)CN2CCN3CCN4CCN(CC2)CC(=O)[O][Lu]([O]C(=O)C3)[O]C(=O)C4)N(C)C(=O)[C@H](Cc2ccccc2)NC1=O` [RB-0005760] (cyclo(F[NMehCys](DOTA(Lu)NH(CH2)6NHCOCH2)Y[dTrp(βS-Me)][Ala(piperidin-4-yl)]T)): the inhibition constant (Ki) on SSTR2 (read-out: SSTR2 Ki) is below 1 nM. Moreover, in data set [1], the tissue uptake at 2 h was determined as 2.7 %ID/g.

Turning to `CNCCCC[C@@H]1NC(=O)[C@@H](Cc2c[nH]c3ccccc23)NC(=O)[C@H](Cc2ccc(O)cc2)NC(=O)[C@H](CCSCC(=O)NCCCCCCNC(=O)CN2CCN3CCN4CCN(CC2)CC(=O)[O][Lu]([O]C(=O)C3)[O]C(=O)C4)N(C)C(=O)[C@H](Cc2ccccc2)NC(=O)[C@H]([C@@H](C)O)NC1=O` [RB-0005799] (cyclo(F[NMehCys](DOTA(Lu)NH(CH2)6NHCOCH2)Y[dW][Lys(Me)]T)), on SSTR2 (read-out: SSTR2 Ki), the Ki is below 1 nM. The molecule further returned a tissue uptake at 2 h in data set [1] of 2.3 %ID/g.

On to `C[C@@H](O)[C@@H]1NC(=O)[C@H](CCCCN(C)C)NC(=O)[C@@H](Cc2c[nH]c3ccccc23)NC(=O)[C@H](Cc2ccc(O)cc2)NC(=O)[C@H](CCSCC(=O)NCCCCCCNC(=O)CN2CCN3CCN4CCN(CC2)CC(=O)[O][Lu]([O]C(=O)C3)[O]C(=O)C4)N(C)C(=O)[C@H](Cc2ccccc2)NC1=O` [RB-0005801] (cyclo(F[NMehCys](DOTA(Lu)NH(CH2)6NHCOCH2)Y[dW][Lys(Me2)]T)), for which the Ki on SSTR2 (read-out: SSTR2 Ki) lay in the range of 1 to 3.33 nM. Besides, in data set [1], the tissue uptake at 2 h is 2 %ID/g. On to `C[C@@H](O)[C@@H]1NC(=O)[C@H](CN2CCNCC2)NC(=O)[C@@H](Cc2c[nH]c3ccccc23)NC(=O)[C@H](Cc2ccc(O)cc2)NC(=O)[C@H](CCSCC(=O)NCCCCCCNC(=O)CN2CCN3CCN4CCN(CC2)CC(=O)[O][Lu]([O]C(=O)C3)[O]C(=O)C4)N(C)C(=O)[C@H](Cc2ccccc2)NC1=O` [RB-0005805] (cyclo(F[NMehCys](DOTA(Lu)NH(CH2)6NHCOCH2)Y[dW][Ala(piperazin-1-yl)]T)), for which the Ki on SSTR2 (SSTR2 Ki) was below 1 nM. Besides, in data set [1], the tissue uptake at 2 h amounted to 2.5 %ID/g.

With `C[C@@H](O)[C@@H]1NC(=O)[C@H](CCC2CNC2)NC(=O)[C@@H](Cc2c[nH]c3ccccc23)NC(=O)[C@H](Cc2ccc(O)cc2)NC(=O)[C@H](CCSCC(=O)NCCCCCCNC(=O)CN2CCN3CCN4CCN(CC2)CC(=O)[O][Lu]([O]C(=O)C3)[O]C(=O)C4)N(C)C(=O)[C@H](Cc2ccccc2)NC1=O` [RB-0005897] (cyclo(F[NMehCys](DOTA(Lu)NH(CH2)6NHCOCH2)Y[dW][X2]T)), the Ki on SSTR2 (read-out: SSTR2 Ki) was below 1 nM. Moreover, the tissue uptake at 2 h in data set [1] came out at 2.5 %ID/g. For the molecule `C[C@@H](O)[C@@H]1NC(=O)[C@H](COC2CNC2)NC(=O)[C@@H](Cc2c[nH]c3ccccc23)NC(=O)[C@H](Cc2ccc(O)cc2)NC(=O)[C@H](CCSCC(=O)NCCCCCCNC(=O)CN2CCN3CCN4CCN(CC2)CC(=O)[O][Lu]([O]C(=O)C3)[O]C(=O)C4)N(C)C(=O)[C@H](Cc2ccccc2)NC1=O` [RB-0006013] (cyclo(F[NMehCys](DOTA(Lu)NH(CH2)6NHCOCH2)Y[dW]S(X1)T)), the Ki at SSTR2 (read-out: SSTR2 Ki) was in the range of 1 to 3.33 nM. In data set [1], this molecule had a tissue uptake at 2 h of 3 %ID/g. Taken in the same sequence, the figures for `C[C@@H](O)[C@@H]1NC(=O)[C@H](CN2CCNCC2)NC(=O)[C@@H]([C@@H](C)c2c[nH]c3ccccc23)NC(=O)[C@H](Cc2ccc(O)cc2)NC(=O)[C@H](CCSCC(=O)NCCCCCCNC(=O)CN2CCN3CCN4CCN(CC2)CC(=O)[O][Lu]([O]C(=O)C3)[O]C(=O)C4)N(C)C(=O)[C@H](Cc2ccccc2)NC1=O` [RB-0006072] (cyclo(F[NMehCys](DOTA(Lu)NH(CH2)6NHCOCH2)Y[dTrp(βS-Me)][Ala(piperazin-1-yl)]T)) were below 1 nM and 2.7 %ID/g. With `C[C@@H](O)[C@@H]1NC(=O)[C@H](CC2CCNCC2)NC(=O)[C@@H]([C@@H](C)c2c[nH]c3ccccc23)NC(=O)[C@H](Cc2ccc(O)cc2)NC(=O)[C@H](CCCCNC(=O)CN2CCN3CCN4CCN(CC2)CC(=O)[O][Lu]([O]C(=O)C3)[O]C(=O)C4)N(C)C(=O)[C@H](Cc2ccccc2)NC1=O` [RB-0006176] (cyclo(F[NMeK](DOTA(Lu))Y[dTrp(βS-Me)][Ala(piperidin-4-yl)]T)), in data set [1], the tissue uptake at 2 h was determined as 1.6 %ID/g.

B1: RB-0003453 (peptide)
peptide: XYWKTF
modifications: cyclo[NMe-Hcy(COCH2-Dah-DOTA-Lu);Tyr;D-Trp;NMe-Lys;Thr;Phe]
With B1, in data set [2], the Ki was below 1 nM.

B2: RB-0002676 (peptide)
peptide: XYWKVF
modifications: cyclo[NMe-Hcy(COCH2-Dah-DOTA-Lu);Tyr;D-Trp;Lys;Val;Phe]
Molecule B2 had a Ki in data set [2] below 1 nM.

B3: RB-0006176 (peptide)
peptide: cyclo([NMeK]Y[dTrp(βS-Me)][Ala(piperazin-1-yl)]TF)
modifications: not fully specified (residue 1); printed as cyclo[NMe-Lys(DOTA-Lu),Tyr,(S-βMe)D-Trp,PipzaA,Thr,Phe]; also: Lu chelated in DOTA
With B3, in data set [2], the Ki is below 1 nM.

For the origin of these results see patent publication US20250222146A1, “Radiopharmaceuticals Targeting Somatostatin Receptor 2 and Uses Thereof” (RayzeBio, Inc., priority 2023, published 2025).
